Data: paper PMC12466997, “Coming Clean and Avoiding Bubble Trouble–Using Detergents Wisely in the Purification of Membrane Proteins for Cryo-EM Studies” (Biomolecules, 2025)

B1: WzzB^ST (natural protein)
chain: MTVDSNTSSGRGNDPEQIDLIELLLQLWRGKMTIIVAVIIAILLAVGYLMIAKEKWTSTAIITQPDAAQVATYTNALNVLYGGNAPKISEVQANFISRFSSAFSALSEVLDNQKEREKLTIEQSVKGQALPLSVSYVSTTAEGAQRRLAEYIQQVDEEVAKELEVDLKDNITLQTKTLQESLETQEVVAQEQKDLRIKQIEEALRYADEAKITQPQIQQTQDVTQDTMFLLGSDALKSMIQNEATRPLVFSPAYYQTKQTLLDIKNLKVTADTVHVYRYVMKPTLPVRRDSPKTAITLVLAVLLGGMIGAGIVLGRNALRSYKPKAL
notes: WzzB^ST, bacterial inner membrane polysaccharide copolymerase (O-antigen chain length regulator); the AlphaFold2 model AF-Q04866-F1 of the full-length protein was fitted into the map; periplasmic domain residues 55-289, TM residues 20-54 and 289-319; source: extraction and purification as previously described [65]; purified, in 20 mM Tris pH 7.5, 150 mM NaCl, 0.025% DDM; copies: 12
B2: Methanocaldococcus jannaschii CorA (natural protein, UniProt Q58439 1-317, looked up)
chain: MITVIAIAKDGSIVEPKLDEISFEDYRLIWIDCYDPKDEELYKLSKKIGISVSDLQIGLDEQEIPRVEEDEDFYLIIYKAPLFEEDITTTSLGIYIKNNLLLTIHSDKIKAIGRLHKLISTKKPRIVFERGIGFLLYHILNEITRSYSRILMNLEDELEELEDKLLAGYDREVMEKILGLRKTLVYFHKSLIANRDVLVLLKRKYLPITTKEDRENFEDLYYDTLQLIDMSATYREVLTSMMDITLSLENIKMNQIMKILTMVTTIFAVPMWITGIYGMNFSYLPLANNPQGFWLVMALMVVIIMIFVYIFRRSGWI
notes: CorA magnesium channel (divalent metal ion transporter) of Methanocaldococcus jannaschii, E. coli codon-optimised, in pET15b; The HA tag is said to precede MjCorA; the His-tag was removed by thrombin; also called MjCorA; McCorA

Key:
[1] = biological target: the molecule itself; assay: cryo-EM structure; WzzB^ST at 10 mg/mL in 20 mM Tris pH 7.5, 150 mM NaCl, 0.025% DDM; single-particle analysis in RELION 5, ~4.2 Å, C6 ring of dimers; AlphaFold2 model fitted and refined
[2] = biological target: the molecule itself; assay: cryo-EM 2D class averages; WzzB^ST in DDM; 2D classes and an unmasked 3D reconstruction; smaller oligomer and end-to-end pseudo-D-symmetrical pairs of complexes
[3] = biological target: the molecule itself; assay: cryo-EM structure; MjCorA at 2 mg/mL in 50 mM Tris/HCl pH 8.0, 200 mM NaCl, DDM; initial 3D classification of ~550,000 particles, binned x4, resolution limited to ~6 Å

| Protein | stoichiometry N [1] | stoichiometry N [2] | stoichiometry N [3] |
| --- | --- | --- | --- |
| B1 | 12 | ~4 |  |
| B2 |  |  | 5 |
